Experimental data reported in patent US20200157194A1 (Regeneron, published 2020).
Residue numbers refer to the chain shown, from its start.

T1: recombinant human GREM1 (hGREM1-His; C-terminal 10His tagged, R&D, #5190-GR) (human, UniProt O60565 25-184)
T1 construct: range 25-184; also called recombinant human GREM1 with a C-terminal decahistidine tag
T1 sequence: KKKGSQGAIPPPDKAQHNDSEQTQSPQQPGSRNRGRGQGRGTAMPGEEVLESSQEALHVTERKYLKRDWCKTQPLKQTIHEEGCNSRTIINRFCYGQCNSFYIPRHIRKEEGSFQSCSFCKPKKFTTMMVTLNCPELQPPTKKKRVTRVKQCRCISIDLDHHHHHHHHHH

T2: human GREM1 (hGREM1-His; SEQ ID NO: 595) (human, UniProt O60565 25-184)
T2 construct: also called biotin-hGREM1-His; recombinant human GREM1 protein
T2 sequence: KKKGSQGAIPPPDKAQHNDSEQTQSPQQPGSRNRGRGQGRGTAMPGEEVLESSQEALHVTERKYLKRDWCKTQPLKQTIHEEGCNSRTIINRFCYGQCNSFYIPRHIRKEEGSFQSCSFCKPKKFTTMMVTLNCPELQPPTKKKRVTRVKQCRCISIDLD

B1: H4H6240P (antibody, human IgG4, V domains shown)
VH: QVQLVESGGGVVQPGRSLRLSCAASGFTFSSYGMHWVRQAPGKGLEWVAVIWYDGSNKYYADSVKGRFIISRDNSKNMMYLQMNSLRAEDTAVYYCAREDNWNYAFDYWGQGTLVTVSS
VL: EIVMTQSPATLSVSPGERATLSCRASQSISSNLAWYQQKPGQAPRLLIYDSSTRATGIPARFSGSGSGTQFTLTISSLQSEDFALYYCQQYSNWPPFTFGPGTKVDIK
notes: H4H prefix = human IgG4 Fc
B2: H4H2897N (antibody, human IgG4, V domains shown)
VH: QVQLVESGGGVVQPGRSLRLSCAASGFTFTNYGMHWVRQAPGKGLEWVAAISYDGTNKYYADSVKGRFTISRDDSKNTLCLQMNSLRAEDTAVYYCAKEGTGEGFSFDYWGQGTLVTVSS
VL: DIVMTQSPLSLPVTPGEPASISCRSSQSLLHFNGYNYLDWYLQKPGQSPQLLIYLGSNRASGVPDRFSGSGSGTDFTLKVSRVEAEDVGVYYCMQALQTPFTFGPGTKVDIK
notes: H4H prefix = human IgG4 Fc
B3: H4H6236P (antibody, human IgG4, V domains shown)
VH: QVQLVQSGAEVKKPGASVKVSCKVSGYTLTELSMHWVRQAPGKGLEWMGGFDPEDGETIYAQKFQGRVTMTEDTSTETAYMELSSLRSEDTAVYYCATDDYDILTDYPYNMDVWGQGTTVTVSS
VL: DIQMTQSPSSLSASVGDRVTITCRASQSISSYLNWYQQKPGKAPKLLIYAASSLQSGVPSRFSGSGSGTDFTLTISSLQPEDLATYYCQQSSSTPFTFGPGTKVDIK
notes: H4H prefix = human IgG4 Fc
B4: H4H6243P (antibody, human IgG4, V domains shown)
VH: B3 VH with G66D, E77D, A97V, D102E, T105P, D106E
VL: DIQMTQSPSSLSASVGDRVTITCRASQSISTYLNWYQQKPGKAPKLLIYAASSLQSGVPSRFSGSGSGTDFTLTIRSLQPEDFATYYCQQSHITPFTFGPGTKVDIK
notes: H4H prefix = human IgG4 Fc
B5: H4H6232P (antibody, human IgG4, V domains shown)
VH: B3 VH with V68L, E77D, D106S
VL: B4 VL with S30N, T31N, R76S, A84G, H92D, I93S
notes: H4H prefix = human IgG4 Fc
B6: H4H6238P (antibody, human IgG4, V domains shown)
VH: QVQLVESGGGLVKPGGSLRLSCAASGFTFSDYYMSWIRQAPGKGLEWVSYIGTRGSSIYYADSLKGRFTISRDNAKNSLYLQMNSLRAEDTAVYYCARDPTGTSYFDYWGQGTLVTVSS
VL: not shown
notes: H4H prefix = human IgG4 Fc
B7: H4H6233P (antibody, human IgG4, V domains shown)
VH: QVQLVESGGGVVQPGRSLRLSCAASGFTFSSYGMHWVRQAPGKGLEWVAVIWYDGSNYYYAASVKGRFTISRDNSENTLYLQMNRLRAEDTAVYYCAREGTGSTEDYFDYWGQGTLVTVSS
VL: EIVLTQSPATLSLSPGERATLSCRASQSVSSFLAWYQQKPGQAPRLLIYDASNRATGIPVRFSGSGSGTDFTLTISSLEPEDFAVYYCQQRSNWPPYTFGQGTKLEIK
notes: H4H prefix = human IgG4 Fc
B8: H4H2926N (antibody, human IgG4, V domains shown)
VH: EVQLVESGGGLVQTGRSLRLSCAASGFTFDDYAMNWVRQAPGKGLEWVSGISWNSGNIGYADSVKGRFTISRDNAKNSLYLQMNSLRAEDTALYYCVKYIGQQLVQDYFDYWGQGTLVTVSS
VL: DIQMTQSPSSLSASVGDRVTITCQASQDITNYLNWYQQRPGKAPKLLIYDAFNLERGVPSRFSGSGYGTYFTFTISSLQPEDIAIYYCQQYDNLPLTFGGGTKVEIE
notes: H4H prefix = human IgG4 Fc

Target: T1, recombinant human GREM1 (hGREM1-His; …)
Assay: BLI Octet, mAb captured, 100 nM GREM1 + 5 uM heparin;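 further: octet Red96 biolayer interferometry at 25 °C, antibodies captured on anti-human IgG Fc biosensors, pH 7.4 HEPES buffer with 0.1 mg/mL BSA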
Description: (§1) Binding measurements were conducted using an Octet Red96 label-free biomolecular interaction instrument (ForteBio). All experiments were performed at 25° C. using plate agitation at 1000 rpm. Solutions were made in an aqueous buffer containing 10 mM HEPES, 150 mM NaCl, 3 mM EDTA 0.05% P20, 0.1 mg/mL BSA and adjusted to pH of 7.4 (HBST buffer).
(§2) Anti-Human IgG Fc Capture biosensors (ForteBio) were separately loaded with 50 μg/mL solutions of 24 different anti-GREM1 antibodies for 60 seconds. Following a 30 second wash, duplicate biosensors for each antibody were submerged into wells containing either 100 nM GREM1 solutions or 100 nM GREM1 solutions containing 5 μM of heparin, measuring association for 300 seconds.

Row | Binding Signal with 30 sec Association [nm] | Binding Signal with 300 sec Association [nm] | Binder
1 | 0.05 | 0.37 | B1
2 | 0.01 | 0.26 | B2
3 | 0.05 | 0.43 | B3
4 | 0 | 0.21 | B4
5 | 0.06 | 0.46 | B5
6 | 0.02 | 0.33 | B6
7 | 0.08 | 0.41 | B7
8 | 0.07 | 0.42 | B8

Target: T2, human GREM1 (hGREM1-His; SEQ ID NO: 595)
Assay: SPR, Biacore T200, 37 C, mAb captured, hGREM1-His injected;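 further: HBS-EP running buffer containing heparin, association and dissociation phases tracked, KD computed as koff over kon and half-life derived from koff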
Description: (§3) Kinetic experiments were carried out using HBS-EP+heparin [10 mM HEPES, 150 mM NaCl, 3 mM EDTA, 0.05% (v/v) surfactant P20, 10 μg/ml heparin sodium salt, pH 7.4] as both the running buffer and the sample buffer. […] Antigen-antibody association was monitored for 150 seconds while dissociation in buffer was monitored for 420 seconds. Kinetic analysis was performed using Scrubber software version 2.0a or Biacore T200 evaluation software v1.0 to determine kₐ and kd values. KD and t_{1/2} were then calculated from the experimentally determined kₐ and kd values as KD=kd/kₐ and t_{1/2}=In(2)/kd.

Row | Kd [nM] | koff [s⁻¹] | kon [M⁻¹ s⁻¹] | t1/2 [min] | Binder
9 | 9.75 | 0.00118 | 121000 | 10 | B1
10 | 28.8 | 0.00202 | 70300 | 6 | B2
11 | 2.63 | 0.000245 | 93000 | 47 | B3
12 | 68.7 | 0.000484 | 7050 | 24 | B4
13 | 1.73 | 0.000195 | 113000 | 59 | B5
14 | 16.4 | 0.000931 | 56900 | 12 | B6
15 | 3.26 | 0.000512 | 157000 | 23 | B7
16 | 11.1 | 0.0014 | 126000 | 8 | B8

Target: T1, recombinant human GREM1 (hGREM1-His; …)
Assay: BLI Octet, mAb captured, 100 nM GREM1;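 further: octet Red96 biolayer interferometry at 25 °C in pH 7.4 HEPES saline buffer, antibodies held on anti-human IgG Fc capture biosensors, then exposed to GREM1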
Description: as §1, §2

Row | Binding Signal with 30 sec Association [nm] | Binding Signal with 300 sec Association [nm] | Binder
17 | 0.23 | 0.53 | B1
18 | 0.2 | 0.68 | B2
19 | 0.33 | 0.45 | B3
20 | 0.3 | 0.47 | B4
21 | 0.33 | 0.48 | B5
22 | 0.13 | 0.41 | B6
23 | 0.19 | 0.47 | B7
24 | 0.23 | 0.49 | B8

Target: T2, human GREM1 (hGREM1-His; SEQ ID NO: 595)
Assay: competition ELISA, biotin-hGREM1-His (100 pM) binding to coated hBMP4
Description: Data were analyzed using a sigmoidal dose-response model within Prism™ software. […] The absorbance values of the wells containing the highest concentration for each antibody were used to determine the percent maximum blocking.

Row | % blocked at maximum Ab tested (20 nM) [%] | IC50 [nM] | Binder
25 | 60 | 0.65 | B1
26 | 73 | 0.042 | B2
27 | 95 | < 0.025 | B3
28 | 92 | < 0.025 | B4
29 | 93 | < 0.025 | B5
30 | 64 | 0.97 | B6
31 | 66 | 0.69 | B7
32 | 93 | 0.052 | B8

Target: T1, recombinant human GREM1 (hGREM1-His; …)
Assay: BLI Octet, mAb captured, 100 nM GREM1 without vs with 5 uM heparin;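 further: octet Red96 biolayer interferometry at 25 °C, antibodies captured on anti-human IgG Fc biosensors, association of GREM1 measured with versus without heparin in HEPES-buffered saline, pH 7.4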
Description: as §1, §2

Row | Reduction in Signal from Heparin at 30 sec [nm] | Reduction in Signal from Heparin at 300 sec [nm] | Binder
33 | 0.18 | 0.16 | B1
34 | 0.19 | 0.42 | B2
35 | 0.28 | 0.02 | B3
36 | 0.3 | 0.26 | B4
37 | 0.27 | 0.02 | B5
38 | 0.11 | 0.08 | B6
39 | 0.11 | 0.06 | B7
40 | 0.16 | 0.07 | B8

Target: T1, recombinant human GREM1 (hGREM1-His; …)
Assay: cell-based or functional assay

Row | hGREM1-His Inhibition IC50, M; W-20-17 cell differentiation assay (alkaline phosphatase) [nM] | Binder
41 | 7.8 | B1
42 | 18 | B2
43 | 3.9 | B3
44 | 5.9 | B4
45 | 4.5 | B5
46 | 22 | B6
47 | 23 | B7
48 | 13 | B8

Target: T2, human GREM1 (hGREM1-His; SEQ ID NO: 595)
Assay: SPR, Biacore T200, 25 C, mAb captured, hGREM1-His injected;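 further: Heparin-supplemented HBS-EP+ used as running buffer, association and dissociation phases followed, Kd computed as koff divided by kon and half-life derived from koff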
Description: as §3

Row | Kd [nM] | koff [s⁻¹] | kon [M⁻¹ s⁻¹] | t1/2 [min] | Binder
49 | 4 | 0.000319 | 79700 | 36 | B1
50 | 148 | 0.00041 | 2770 | 28 | B2
51 | 2.99 | 0.000125 | 42000 | 92 | B3
52 | 11.3 | 0.000178 | 15800 | 65 | B4
53 | 1.25 | 9.6e-05 | 76800 | 120 | B5
54 | 9.32 | 0.000225 | 24100 | 51 | B6
55 | 1.88 | 0.000172 | 91300 | 67 | B7
56 | 5.52 | 0.000502 | 91000 | 23 | B8

Target: T1, recombinant human GREM1 (hGREM1-His; …)
Assay: cell-based or functional assay
Remark: another data set of the same source

Row | IC50 [M], inhibition of hGREM1-His, W-20-17/BRE-luc luciferase (100 pM hBMP4, 10 nM hGREM1-His) [M] | Binder
57 | 8.1e-10 | B1
58 | 4.5e-10 | B2
59 | 5.4e-10 | B3
60 | 5.4e-10 | B4
61 | 7.8e-10 | B5
62 | 1.1e-09 | B6
63 | 4.1e-10 | B7
64 | 1.2e-09 | B8
